B1: anti-IL13 monoclonal antibody 228B/C-1 (antibody, V domains shown)
VH: QVQLQESGPGLVAPSQSLSITCTVSGFSLNAYSVNWVRQPPGKGLEWLGMIWGDGKIVYNSALKSRLNISKDSSKSQVFLKMSSLQSDDTARYYCAGDGYYPYAMDNWGHGTSVTVSS
VL: NIVLTQSPASLAVSLGQRATISCRASKSVDSYGNSFMHWYQQKPGQPPKLLIYLASNLESGVPARFSGSGSRTDFTLTIDPVEADDAASYYCQQNNEDPRTFGGGTKLEIK
B2: chimeric Fab of 228B/C (Fab, V domains shown)
VH: B1 VH
VL: B1 VL
modifications: Used labeled in the competition assay of paragraph 260; the label is not named.
notes: also called chimeric clone
B3: anti-IL13 monoclonal antibody 227-26 (antibody, V domains shown)
VH: QVQLQQSGDDLVLPGASVKLSCKASGYTFTSYWINWIKQRPGQGLEWIGHIAPGSGSTYFNEMFKGKATLTVDTSSSTAYIQLSSLSSEDSAVYFCARSDIFLSYAMDYWGQGTSVTVSS
VL: DVLMTQTPLSLPVSLGDQASISCRSSQSIVHSNGNTYLQWYLQKPGQSPKLLIYKVSNRFSGVPDRFSGSGSGTDFTLKISRVEAEDLGVYYCFQGSHVPYTFGGGTKLEIK
notes: also called hybridoma ATCC PTA-5654

Legend:
human IL13 [1] = target: T1, human IL13 (human, UniProt P35225 35-146); test: cell-based or functional assay
[2] = target: T2, 12-mer peptide of human IL13, YCAALESLINVS (human, synthesized via SPOT on cellulose membrane); test: peptide spot analysis on cellulose membrane
T2 peptide: YCAALESLINVS
Source text: This epitope was further confirmed by peptide spot analysis. The entire human IL13 peptide was scanned with a series of overlapping 12-mer peptides synthesized via SPOT on cellulose membrane. The only anti-IL13 MAb reactive peptide was identified as a 12-mer peptide of amino acid #44-56, […] (SEQ ID NO 19), which is overlapping with the region identified through domain swapping experiments.

human IL13 [3] = target: T1, human IL13; test: ELISA; wells coated with E. coli expressed non-glycosylated human IL13 (0.1 µg/mL); bound MAb detected with HRP-goat anti-mouse IgG (Fc); OD 450 nm
Protocol: (§1) The reactivity of various anti-IL13 monoclonal antibodies was tested by ELISA. Different wells of 96-well microtest plates were coated with either E. coli expressed non-glycosylated human IL13 (R&D Systems), 293T cell expressed glycosylated MT-IL13/Fc, or E. coli expressed mouse IL13 (R&D Systems) by the addition of 100 μL of IL13 protein at 0.1 μg/mL in PBS. After overnight incubation at room temperature, the wells were treated with PBSTB (PBST containing 2% BSA) to saturate the remaining binding sites. The wells were then washed with PBST.
(§2) One hundred microliters of two-fold serially diluted anti-IL13 MAbs (0.5 μg/mL (3.33 nM) to […] (0.00033 nM)) were added to the wells for 1 hour at room temperature. An anti-IL13 MAb JES-5A2 from (BD Biosciences-Pharmingen, San Diego, Calif.) was also tested as a positive control. This antibody was generated by using E. coli expressed human IL13 as immunogen. An isotype-matched mouse anti-HIV-1 gp120 MAb was used as irrelevant negative control. The wells were then washed with PBST. Bound antibody was detected by incubation with diluted HRP-goat anti-mouse IgG (Fc) (Jackson ImmunoResearch) for 1 hour at room temperature. Peroxidase substrate solution was then added for color development as described above. The OD₄₅₀ was measured using an ELISA reader.

[4] = target: T3, IL-13 (antigen captured on the plate in the Fab ELISAs of Examples 9 and 10) (UniProt P35225 35-146); test: ELISA; IL-13 captured on the plate in a limiting amount; Fab titrated 1:3; detected with a secondary antibody specific for Fab; A560 nm
T3 construct: also called the antigen IL-13

[5] = target: T3, IL-13 (antigen captured on the plate in …); test: as above; remark: listed apart in the source
[6] = target: T3, IL-13 (antigen captured on the plate in …); test: as above; remark: listed apart in the source
[7] = target: T3, IL-13 (antigen captured on the plate in …); test: ELISA; IL-13 captured on the plate in a limiting amount; Fab titrated 1:3; detected with a secondary antibody specific for Fab; A410 nm
[8] = target: T3, IL-13 (antigen captured on the plate in …); test: ELISA; IL-13 captured on the plate in a limiting amount; Fab titrated 1:3; detected with a secondary antibody specific for Fab; A 560 nm
[9] = target: T3, IL-13 (antigen captured on the plate in …); test: competition ELISA; IL-13 captured on the plate; purified Fab pre-mixed with a constant concentration of labeled chimeric anti-IL-13 Fab (228 B/C #3); Abs 590 nm of bound labeled Fab
Protocol: To confirm that these combinatorial candidates maintained function, a competition assay was performed. For this assay, IL-13 was captured on an ELISA plate. The candidates, which are purified Fabs, were pre-mixed in varying concentrations to a constant concentration of labeled chimeric anti-IL-13 Fab. This mixture was added to the ELISA plate. The labeled chimeric anti-IL-13 capable of binding to the plate-bound IL-13 were detected.

mouse IL13 = target: T4, mouse IL13 (mouse, UniProt P20109 22-131, limits assumed); test: ELISA on plate-coated E. coli expressed mouse IL13
T4 construct: also called E. coli expressed mouse IL13 (R&D Systems); murine IL13
T4 sequence: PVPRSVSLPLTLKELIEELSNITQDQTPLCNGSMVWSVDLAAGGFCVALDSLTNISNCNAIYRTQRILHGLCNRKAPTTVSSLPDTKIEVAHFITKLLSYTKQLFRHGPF
Protocol: as §1, §2

T3 sequence (P35225 35-146 limits assumed): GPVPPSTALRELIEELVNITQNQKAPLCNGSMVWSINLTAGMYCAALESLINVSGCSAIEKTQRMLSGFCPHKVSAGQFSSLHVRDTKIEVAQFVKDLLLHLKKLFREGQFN
T1 sequence (P35225 other isoform, or with tags, fused parts or gaps limits assumed): as the sequence (P35225 35-146 limits assumed) above, with Q110R counted along it

Binder	molar stoichiometric ratio (MAb:IL13) for complete inhibition, CD14 and CD23 assays (human IL13 [1])	molar stoichiometric ratio between 228B/C-1 and IL13 for complete inhibition, Stat6 assay (human IL13 [1])	binding result [2]	EC50 (read off the curve) (human IL13 [3])	EC50 (read off the curve) [4]	EC50 (read off the curve) [5]	EC50 (read off the curve) [6]	EC50 (read off the curve) [7]	EC50 (read off the curve) [8]	IC50 (read off the curve) [9]	binding result (mouse IL13)
B1	0.5 MAb:IL13 molar ratio	~0.5 MAb:IL13 molar ratio	binds	~10 pM							
B2					~10 ng/mL	~7 ng/mL	~4 ng/mL	~20 ng/mL	~7 ng/mL	~90 ng/mL	
B3				~20 pM							no binding

From US20120156203A1 (Genentech, published 2012)
